T1: human CD300LB-Fc (human)
T1 construct: hIgG1-Fc fusion; the entry is the whole fusion chain
T1 chain: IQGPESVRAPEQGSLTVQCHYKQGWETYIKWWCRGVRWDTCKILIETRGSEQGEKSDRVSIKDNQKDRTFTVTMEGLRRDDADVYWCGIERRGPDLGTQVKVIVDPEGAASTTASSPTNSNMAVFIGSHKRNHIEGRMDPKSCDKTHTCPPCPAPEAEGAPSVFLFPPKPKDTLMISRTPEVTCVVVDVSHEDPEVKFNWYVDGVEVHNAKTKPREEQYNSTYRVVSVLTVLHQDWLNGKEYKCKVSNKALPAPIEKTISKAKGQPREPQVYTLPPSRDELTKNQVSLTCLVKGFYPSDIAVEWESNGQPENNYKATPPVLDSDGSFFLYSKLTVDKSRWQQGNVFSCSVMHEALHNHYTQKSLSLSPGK

T2: human CD300C-Fc (human)
T2 construct: hIgG1-Fc fusion; the entry is the whole fusion chain
T2 chain: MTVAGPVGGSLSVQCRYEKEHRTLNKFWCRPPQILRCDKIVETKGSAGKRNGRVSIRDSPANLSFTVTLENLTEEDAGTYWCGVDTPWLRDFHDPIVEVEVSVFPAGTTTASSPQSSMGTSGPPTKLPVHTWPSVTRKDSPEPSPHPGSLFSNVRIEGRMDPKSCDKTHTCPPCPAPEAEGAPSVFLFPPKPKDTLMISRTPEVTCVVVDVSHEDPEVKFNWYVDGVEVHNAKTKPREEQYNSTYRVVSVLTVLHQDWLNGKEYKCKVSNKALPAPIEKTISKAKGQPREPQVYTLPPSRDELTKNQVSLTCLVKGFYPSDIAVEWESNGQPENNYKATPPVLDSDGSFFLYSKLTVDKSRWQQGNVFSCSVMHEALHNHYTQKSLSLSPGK

T3: human CD300D-Fc (human)
T3 construct: hIgG1-Fc fusion; the entry is the whole fusion chain
T3 chain: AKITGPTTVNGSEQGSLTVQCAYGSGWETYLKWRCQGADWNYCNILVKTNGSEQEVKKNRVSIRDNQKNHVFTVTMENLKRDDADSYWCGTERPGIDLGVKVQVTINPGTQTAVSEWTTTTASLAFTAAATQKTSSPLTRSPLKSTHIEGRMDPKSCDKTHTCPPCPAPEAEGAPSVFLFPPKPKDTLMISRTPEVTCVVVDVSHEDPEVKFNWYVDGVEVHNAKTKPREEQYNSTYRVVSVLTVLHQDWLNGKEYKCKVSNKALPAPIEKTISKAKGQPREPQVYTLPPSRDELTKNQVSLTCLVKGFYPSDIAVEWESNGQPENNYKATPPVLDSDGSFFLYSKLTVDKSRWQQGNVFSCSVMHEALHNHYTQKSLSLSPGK

T4: human CD300F-Fc (human)
T4 construct: hIgG1-Fc fusion; the entry is the whole fusion chain
T4 chain: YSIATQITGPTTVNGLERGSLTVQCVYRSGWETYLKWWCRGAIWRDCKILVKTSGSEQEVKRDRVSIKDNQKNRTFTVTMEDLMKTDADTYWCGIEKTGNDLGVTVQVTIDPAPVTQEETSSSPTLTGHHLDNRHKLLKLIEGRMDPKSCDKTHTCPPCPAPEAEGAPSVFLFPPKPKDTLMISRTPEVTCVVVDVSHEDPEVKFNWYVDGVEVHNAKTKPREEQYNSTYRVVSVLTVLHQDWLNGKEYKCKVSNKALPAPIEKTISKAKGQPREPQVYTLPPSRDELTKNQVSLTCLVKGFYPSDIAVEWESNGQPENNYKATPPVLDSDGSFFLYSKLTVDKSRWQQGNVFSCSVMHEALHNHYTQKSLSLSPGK

T5: human CD300E-Fc (human)
T5 construct: hIgG1-Fc fusion; the entry is the whole fusion chain
T5 chain: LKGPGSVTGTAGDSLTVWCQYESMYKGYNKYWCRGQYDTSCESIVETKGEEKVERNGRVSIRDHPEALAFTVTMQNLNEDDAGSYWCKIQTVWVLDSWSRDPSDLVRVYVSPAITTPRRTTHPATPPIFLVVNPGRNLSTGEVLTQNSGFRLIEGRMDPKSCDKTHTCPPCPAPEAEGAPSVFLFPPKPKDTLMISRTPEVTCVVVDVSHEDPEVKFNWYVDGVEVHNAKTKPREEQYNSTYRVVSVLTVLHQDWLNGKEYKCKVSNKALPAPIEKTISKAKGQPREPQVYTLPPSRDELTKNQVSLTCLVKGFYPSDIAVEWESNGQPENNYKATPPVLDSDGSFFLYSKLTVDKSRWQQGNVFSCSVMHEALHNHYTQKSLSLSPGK

B1: anti-CD300LB antibody CD-02 (antibody, V domains shown)
VH: QVQLQQPGAELVRPGSSVKLSCQASGYTFTNYWMHWVRQRPIQGLEWIGNIDPSDSETHYNQKFKDRATLTVDKSSSTAYMQLSSLTSEDSAVYYCARSGVYDDEGGDYWGQGTTLTVSS
VL: ENVLTQSPAIMSASPGEKVTMTCSASSSVSYIHWYQQKSSTSPKLWIYDTSKLASGVPGRFSGSGSGNSYSLTISSMETEDVATYYCFQGSGYPLTFGAGTKLELK
B2: anti-CD300LB antibody CD-03 (antibody, V domains shown)
VH: EVQLQQSGPELVKPGASVKISCKASGYTFTDYYINWVRQSHGKSLECIGDINPNNGGTNYNQKFKGKATLTVDRSSNTAYMEFRSLTFDDSALYYCAAEGAYWGQGTLVTVSA
VL: not shown
B3: anti-CD300LB antibody CD-05 (antibody, V domains shown)
VH: QVQLVQSGAEVKKPGASVKVSCKASGYTFSRYYINWVRQAPGQGLEWMGWINPNSGGTNYAQKFQGRVTMTRDTSTSTVYMELSSLRSEDTAVYYCTTDQLRFGKTGPYYGMDVWGQGTTVTVSS
VL: DIQMTQSPSSLSASVGDRVTITCRASQNIGTYLNWYQQKPGKAPKLLIYAASSLQSGVPSRFSGSGSGTDFTLTISSLQPEDFATYYCQQSYSDTLTFGGGTKVEIK
B4: anti-CD300LB antibody CD-01 (antibody, V domains shown)
VH: RVQLQQSGAELVRPGASVTLSCKASGFTFTDFEMHWVKKTPVHGLEWIGAIDPESGNTAYNQKFRGKATLTADKSSSTAYMELRYLTSEDSAVYYCTPLISGADYWGQGTTLTVSS
VL: DVVMTQSPLSLPVSLGDQASISCRSSQSLVHSDGNTYLYWYLQKPGQSPKLLIYKVSNRFSGVPDRFSGSGSGTDFTFKISRVGAEDLGVYFCSQSTHVPWTFGGGTKLEII

Experiments:
Assay in all cases: SPR (Carterra LSA), antibody immobilised, Fc fusion at 300 or 600 nM
[1] = molecular target: T1, human CD300LB-Fc
Protocol: (§1) Binding of mouse anti-CD300LB IgG1 antibodies of the present disclosure to human and murine CD300 orthologs were evaluated by surface plasmon resonance (SPR) using a Carterra LSA instrument (Carterra, Salt Lake City, UT). […] A HC200M sensor chip (Carterra) was activated using the single channel flow cell with a 7-minute injection of a 1:1:1 mixture of 100 mM MES pH 5.5, 100 mM sulfo-NHS, 400 mM EDC (all reconstituted in MES pH 5.5; 100 μL of each mixed in vial immediately before running assay). After switching to the multi-channel array flow cell, the antibodies were injected over the activated chip in a 96-spot array for 10 minutes. The remaining unconjugated active groups on the chip were then blocked by injecting 1M Ethanolamine pH 8.5 (Carterra) for 7 minutes using the single channel flow cell. After priming with running buffer (HBS-TE, Carterra) with 0.5 mg/ml BSA (Sigma), the immobilized anti-CD300LB antibodies were tested for their ability to bind human and mouse recombinant CD300LB extracellular domains. Human CD300 family members and mouse CD300A were hIgG1-Fc fusions, while mouse CD300LB, mouse CD300C, mouse CD300D, and mouse CD300E were mouse IgG2a-Fc fusions (R&D Systems). Binding was assessed by injecting each analyte over the entire antibody array using the single channel flow cell. CD300 analytes were diluted to 300 nM or 600 nM in running buffer and injected in series without regeneration. Two or three buffer blanks were run between each mouse or human ortholog, respectively. Data were processed and analyzed using NextGenKIT high-throughput kinetics analysis software (Carterra).
(§2) Results of anti-CD300LB antibody binding to human CD300 family members is provided below in Table 7.

[2] = molecular target: T2, human CD300C-Fc
Protocol: as §1, §2

[3] = molecular target: T3, human CD300D-Fc
Protocol: as §1, §2

[4] = molecular target: T4, human CD300F-Fc
Protocol: as §1, §2

[5] = molecular target: T5, human CD300E-Fc
Protocol: as §1, §2

Row | Binder | SPR binding (control subtracted) [1] | SPR binding (control subtracted) [2] | SPR binding (control subtracted) [3] | SPR binding (control subtracted) [4] | SPR binding (control subtracted) [5]
1 | B1 | 21 | 0.425 | 0.76 | 0.87 | 0.62
2 | B2 | 43 | 0.165 | 0.4 | 0.42 | 0.18
3 | B3 | 51 | 0.06 | 0.115 | 0.045 | 0.195
4 | B4 | 3.71 | 0.805 | 0.575 | 0.075 | -0.105
